Test results reported in the nanobody polyreactivity screen of Harvey et al. (2022).

Test: yeast display, Sf9 membrane polyspecificity reagent, FACS + sequencing; frameworks hold sequencing errors
How it was run: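 Galactose induction of a Saccharomyces cerevisiae BJ5465 synthetic nanobody display library ran 36–48 hours. The cells were then stained for 1 hour at 4 °C with 10% biotinylated, detergent-solubilized Sf9 membrane reagent, pulled down on streptavidin microbeads and FACS-sorted into low and high (top ~1%) gates on expression and reagent-binding fluorescence. Labels for polyreactivity follow the gate of origin.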
In the case of “QVHLVESGGGLVQEGGSLRLSCAASGFTFDSYAMGWYRQAPGKERELVASISSSGSTNYADSVKGRFTISRDNAKNTVYLQMNSLKPEDTGVYYCAAESRYPFIYEYWGQGTQVTVSS”, the “polyreactivity (PSR sort gate)” value is reported as “low polyreactivity”. For “QVHLVESGGGLVQVGGSLRLSCAASGSIFRWYAMGWYRQAPGKERELVAAISSSVGRTYYADSVKGRFTISRDNAKNTVYLQMNSLKPEDTAVYYCAVRYSVVYGTYYYWGQGTKVTVSS”, the “polyreactivity (PSR sort gate)” value was “high polyreactivity”. With “QVHLVESGGRLVQAGGSLRLSCAASGRTVVDNAMGWYRQAPGKESQLVAAISSGGTTNFADSVKGRFTISRDIAKNTVYLQMNSLKPEDTAVFYCNTVATYLRSGYGNWGQGTQVTVSS” the “polyreactivity (PSR sort gate)” value was “low polyreactivity”. With “QVHLVESGGVLVQAGGRHRISCAASGRTFIQNAMGWYRQAPGKERELVAAISWSGGSTYYADSVKGRFTISRDNAKNTVYLQMNSLKPADTAVSYCAAETYDYLFHTYEYWGQATQVTVSS” the “polyreactivity (PSR sort gate)” value was “low polyreactivity”. With “QVHLVESGRGLVQAGGSLRLSCAASGRTLYRYAMGWYRQAPGKERELVAAINQSGGRTYYADSVKGRFTISRDNAKNTVYFQMNSLKPEDTAVYYCAASPVRVGKVIDGRDYWGQGTQVTVSS” the “polyreactivity (PSR sort gate)” value was “high polyreactivity”. With “QVHLVESGRGLVQAGGSLRLSCAASGSIFESYAIGWYRQAPGKERELVAAISGNSDSTYYADSVKGRFTISRDNEKNTVYLQMNSLKPEDTAVYYCAKEGGNGYDYWGQGTQVTVSS” the “polyreactivity (PSR sort gate)” value was “low polyreactivity”. With “QVHLVESGRGLVQAGRSLRLSCAASGLTFDWYDMGCYRQAPGKERELVAAITSVGSTYYADSVKGRFTISRDNAKKTVYLQMNSLKPEDTAVYYCGVEGVIWSFWPYEYWGQGTQVTVSS” the “polyreactivity (PSR sort gate)” value was “high polyreactivity”. With “QVHLVESGVGLVQAGGSLRLSCAASGFIFYYNAMGWYRQAPGKERELVAAISRTGGSTYYADSVKGRFTISRDNAKNTVYLQMNSLKPEDTAVYYCAAVGSPNRRPSRWEGSWGQGTQVTVSS” the “polyreactivity (PSR sort gate)” value was “high polyreactivity”. In the case of “QVHLVESGVGLVQAGGTLRLSCAASGRTFRVYALVWYRQAPGKERELVAAITWNGGSTYYADSVKGRFTISRDNAKNNVYLQMNRLKPEDTAVYYSAAARYAYNIWSGAYDYWGQGTQVTVSS”, the “polyreactivity (PSR sort gate)” value is reported as “high polyreactivity”. With “QVHLVESRGRLVQAGGSLRLSCAASGSIFEPNAMGWYRQAPGKEREFVAAISGSGGSTYYADSVKARFTISRDNAKNTVYLQMNSRNPEDTAVYYCATRGKRSYFRTFYYWGQATQVTVSS” the “polyreactivity (PSR sort gate)” value was “high polyreactivity”. For “QVHLVESVGGLFQAGGSLRLSCAPSGYIYVANVKGWYRQAPGKERELVAAINRRTGITYYADSVKGRCTNSRDNAKNTVNLQMNSLKTEDTAVYYCAALAQSTTYTRPYDYWGQGTQVTVSS”, the “polyreactivity (PSR sort gate)” value was “low polyreactivity”. In the case of “QVHLVESVGGLVQAGGSLRLSCAASGRIFRYYAMGWYRQAPVKAWELVATISQRGGTYYADSVKGRFTISRDNAKNTVYLQMNSLKPEDTAVYYCAARINTYRSYYPSSRSDYWGQGTQVTVSS”, the “polyreactivity (PSR sort gate)” value is reported as “high polyreactivity”. In the case of “QVHLVESWGGLVQAGGSLRLICAASGSTFYANAMGWYRQAPGKERQLVAAITRSRRSTYYADSVKGRFTISRDNAKNTVYLQMNSLKRVDTAVYYFSARRVRDRVRYDYCGQGTQVTVSS”, the “polyreactivity (PSR sort gate)” value is reported as “high polyreactivity”. For “QVHLVESWGGLVQAGGSLRLSCAASGSIFYYYAMGWYRLAPGKERELVAAITSGGSTYYADSVKGRFTISRDNAKNTVYLQMNSLKPEDTAVYYCAAVFYAAYLRYVWYSYDYWGQGTQVTVSS”, the “polyreactivity (PSR sort gate)” value was “low polyreactivity”. In the case of “QVHLVETGGGLVHAGGSLRLSCASSGNIFSWYAMGWYRQAPGKEREFVAVIRGRGGSTYYADSVKGRFTISRDNAKNNVYLLMKSLKPEDTAVYYCAIRGFVLYFYRSGYGYGYWGQGTQVTVSS”, the “polyreactivity (PSR sort gate)” value is reported as “low polyreactivity”. For “QVHLVETGGGLVQEGGSLRLSCAATGSNFGQNAMGWYRQAPGKERELVAAITRRGVATYYADSVKGRFTISRDNAKNTVYLQLISLKPEDTAVYYCAKRYHPNSPYDYWGQGTQVTVSS”, the “polyreactivity (PSR sort gate)” value was “low polyreactivity”. In the case of “QVHLVQSGGGLVQAGGSLRLSCAASGRTFYIYAMGCYRQAPGKERELVAAISWRGGSTYYANSVKGRFTISLDHAKYTVYLQMNSLKPEDTAVYYCAAEGAHVKWYRNWWEYDDWGQGTQVTVSS”, the “polyreactivity (PSR sort gate)” value is reported as “high polyreactivity”. With “QVHLVVSGGGLVQAGGSLRLSCAASGRTFIRYAMGWYRQAPWKESELVAAITQSGGRTYYADSVKGRFTISRDNAKNTVYLQMNSLIPEDTAVYYCAAIGRYAFYYPRDYWGQGTQVTVSS” the “polyreactivity (PSR sort gate)” value was “high polyreactivity”. In the case of “QVKLQESGGGLVQAGGSLRLSCAASGNISVTGFMGLYRQAPGKERELVASIGIGGTTYYADSVKGRFSISRDNAKNTVYLQMNSLKPEDTAVYYCAGIYLYYAYSYWGQGTQVTVSS”, the “polyreactivity (PSR sort gate)” value is reported as “low polyreactivity”. In the case of “QVKLVDSGGGLVQAGGSLRLSCAASGSIFAGYAMGWYRQEPGKVRELVAAINASGGSTYYADSVKGRFTISRDNAKNTVYLQMNSLKPEDTAVYYCNRVYKRYYIGGYDYWGQGTQLTVSS”, the “polyreactivity (PSR sort gate)” value is reported as “high polyreactivity”. For “QVKLVESAGGLVQAGGSHRLSCAASARIFRGNTRGWYRQAPGKEREVVARITWNGGTTNYADSVKGRFTISRDYAKNTVSLQMNSLKPVDTAVYYCAKGSLRQITGILSWYYYWRQGTQVTVSS”, the “polyreactivity (PSR sort gate)” value was “high polyreactivity”. In the case of “QVKLVESAGGLVQAGGSLRLSCPASGSTFPKYPMGWSRQEPGKERELVAAITWRGGSTYYADSVKGRFTISRDNAKNTVYLQMISLNPEDTAVYYCAAVPYYPSRMDYWGQGTQVTVSS”, the “polyreactivity (PSR sort gate)” value is reported as “low polyreactivity”. In the case of “QVKLVESGGCLVQAGGSLRLSCAASGRTIGYYGMGWYRQAPGKARELVAAITGSGGSTYYADSVKGRFTISRDNSKNTVYLQMNILIPEDTAVYYCAATYLSRWTLYDYWGQGTQVTVSS”, the “polyreactivity (PSR sort gate)” value is reported as “high polyreactivity”. With “QVKLVESGGGLVMAGGSLRLSCAASGRTFWIYAMGRYRQAPGKERELVAAISQSSSITYYADSVKRRFTFSRDNAKNTVYLQMNSLKPEDTEGYYCNSDVLRYQGSWLEYWGQGTQVTVSS” the “polyreactivity (PSR sort gate)” value was “low polyreactivity”. For “QVKLVESGGGLVQAGCSLRISCAASGITFKNYAMGWYRQAHGKERELVAAIRSIAGRTNYADSVKGRFTISRDYANNTVYLKMNSLKPEDTAVYYFTAANRGQRSDYRGYYYWGQGTQVTVSS”, the “polyreactivity (PSR sort gate)” value was “high polyreactivity”. With “QVKLVESGGGLVQAGCSLRLSCAASGRIYGGYTMGRYRPAPGKERELVAAITGSGGRTYFADSVKGRFTISRDNAKNTVYLHMNILTPEDTAVYYCNTVYPYRYYWGHGTQVTVSS” the “polyreactivity (PSR sort gate)” value was “high polyreactivity”. With “QVKLVESGGGLVQAGGRLRLSCDAYGIILVGYDMGWYRPAPGKERELVATISSGSSTYYEDSVKGRFTISRDNAKNTVYLQMNSLKPEDTAVYYCNADHAGPYWRFHDDDYWGQGTKVTVSS” the “polyreactivity (PSR sort gate)” value was “low polyreactivity”. With “QVKLVESGGGLVQAGGSLRLSCAASGFIFGDNAMGWYRQAPGKVREFVAAINSGSRTSYADSVKGRFTISRDNAKNTVYLQMNSLKPEDTAVYYCAAESVSSGDYASRYDYWGQGTQVTVSS” the “polyreactivity (PSR sort gate)” value was “low polyreactivity”. For “QVKLVESGGGLVQAGGSLRLSCAASGFIFLRYGMGWYRQAPGKERELVASIDSTGGSTYADSVKGRFTISRDNAKNTVYLKMNSLKPVDTAVYFCAAAFYIVSERDYCGQGTQVTVSS”, the “polyreactivity (PSR sort gate)” value was “low polyreactivity”. With “QVKLVESGGGLVQAGGSLRLSCAASGFTFNRYAMGWYRQAPGKERELVAAISWSGGSTYYADSVKGRFTISRDNAKNTVYLQMNSLKPEDTAVYYCAAATAYYRYRGGYDYWGQGTQVTVSS” the “polyreactivity (PSR sort gate)” value was “high polyreactivity”. For “QVKLVESGGGLVQAGGSLRLSCAASGFTFSYYAMGWYRQAPGKERELVAAISYSGSATYYADSVKVRFTISRDNAKNTVYLQLNSLIPEDTAVYYCNARGATRGLTAYTYDSWGQGTQVTVSS”, the “polyreactivity (PSR sort gate)” value was “high polyreactivity”. For “QVKLVESGGGLVQAGGSLRLSCAASGIIFEVYAMGWYRQAPGKERELVAAITLSSGGITYYADSVKGRFTISRDYAKNTVYLQMNSLKPEDTAVYYCAAQHDNFSGPFEYWGQGTQVTVSS”, the “polyreactivity (PSR sort gate)” value was “low polyreactivity”. For “QVKLVESGGGLVQAGGSLRLSCAASGITFYINAMGWYRQAPGKERELVAVIDSRGSSTFYADSVKGRFTISRDNAKNTVYLQMNSLKPEDTAVYYCAVEGYPGRYRDPGDLYYYWGQGTQVTLSS”, the “polyreactivity (PSR sort gate)” value was “low polyreactivity”. For “QVKLVESGGGLVQAGGSLRLSCAASGRIFDRYAMGWYRQAPGKERELVAAITSRADRTYYADSVKGRFTISRDIAKNTVYLQMNSLKPEDTAVYYCNRRRRHYSYYSTLSYDYWGQGTQVTVSS”, the “polyreactivity (PSR sort gate)” value was “high polyreactivity”. In the case of “QVKLVESGGGLVQAGGSLRLSCAASGRIFNWYAMGWYRQAPGKERELVAAITSGGSTNYADSVKGRFTISRDNAKNTVYLQMNSLKPEDTAVYFCNARGRFRGYRYYYWGQGTQVTVSS”, the “polyreactivity (PSR sort gate)” value is reported as “high polyreactivity”. In the case of “QVKLVESGGGLVQAGGSLRLSCAASGRIFYYYAMGWYRPAPGKERELVAGITTGGGTNYADSVKGRFTISRDNAKNTVYLQMNSLKPEDTAVYYCATGTEGYSDDYGYWGQGTQVTVSS”, the “polyreactivity (PSR sort gate)” value is reported as “low polyreactivity”. With “QVKLVESGGGLVQAGGSLRLSCAASGRISFYYAMGWYRQAPGKERELVATISSSGGSTHYADSVKGRFTISRDNAKNTVYLQMNSLKPEDTAVYYCARDDSERIWLEQSGYWGQGTQVTVSS” the “polyreactivity (PSR sort gate)” value was “low polyreactivity”. With “QVKLVESGGGLVQAGGSLRLSCAASGRTFIYYAMGWYRQAPGKERELVAGITYSVGSTYYADSVKGRFTISRDNAKNTVYLQMNSLKPEVTAVYYCAAKPVGTYSRPHDYWGQGTQVTVSS” the “polyreactivity (PSR sort gate)” value was “low polyreactivity”. With “QVKLVESGGGLVQAGGSLRLSCAASGSIFQGYAMGWYRQAPGKERELVAAISGRGGSTYYADSVKGRFTISRDNAKNTVYLQMNSLKPEDTAVYYCNAPRYYWISFARWPASYYYWGQGTQVTVSS” the “polyreactivity (PSR sort gate)” value was “high polyreactivity”. With “QVKLVESGGGLVQAGGSLRLSCAASGSIFTYTIGWYRQAPGKESELVAVISRSGGRTYYADSVKGRFTISRDNAKNTVYLQMNSLKPEDTAVYYCAAEYYVDYYRTSRSFTRWRYEYWGQGTQVTVSS” the “polyreactivity (PSR sort gate)” value was “high polyreactivity”. In the case of “QVKLVESGGGLVQAGGSLRLSCAASGSSFTNYAMGWYRQEPRKERELVAAITSVGSTYYADSVKGRFTISRDNAKNTVYLQMNSLKPEDTAVYYCNVVYRDQYNYWGQGTQVTVSS”, the “polyreactivity (PSR sort gate)” value is reported as “low polyreactivity”. With “QVKLVESGGGLVQAGGSLRLSCAASGSTFHLNAMGWYRPAPGKDRELVAANSWDGSSTSYADSVKGRFTISRDNAKNTVYLQMNSLKPEDTAVYFCAADDTLDRVPTTFIDGSPGYGYWGQGTQVTVSS” the “polyreactivity (PSR sort gate)” value was “low polyreactivity”. In the case of “QVKLVESGGGLVQAGGSLRLSCAASGSTFSSYAMGWYRQAPGKERELVAAISSSGGTSTYADSVKGRFTISRDNAKNTVYLQMNSLKPEDTAVYYCAARQDRLLRDYRHDYWGQGTQVTVSS”, the “polyreactivity (PSR sort gate)” value is reported as “high polyreactivity”.
